Test results from the DeepSol protein solubility set.

Test: soluble on expression in E. coli; label from the status in PepcDB or PDB records

| Sequence | soluble on expression in E. coli |
| --- | --- |
| MKFGPASPKDAIGGVTVHTLRQGPLVLKKGTTIGPAEVEALERAGIKDVVVVRMEEGDVSEDVAAASIALAVGGEGIHVERAFTGRANLFAARPGVLVIDRAAVDRINNIDEAITFATLTAYKPVVEGEMVGTVKIIPFGVEGALRDAAVKAAGRDVLKIAPYAIKRVGVVSTLLPGLSSKVIDKTLRVTAERLAPSGAGIIAERRVQHDEHALSAAIKELLALGAELVIVFGASAIADRRDVIPAAVTGIGGEIEHFGMPVDPGNLLLIARAEGVPVLGAPGCARSPVENGFDWVLMRLLAGIKVTRAELMGMGVGGLLMEIVTRPQPRARPEIEGNSQVAAIVLAAGRSTRMGGPNKLLAELDGKKLVRIATEQALASKASEVIVVTGHQTELVEQALQGLKVKFARNPDFAGGIASSVKAGIAAVPEACDGAVVCLGDMPLIDAGLIDRLIDSFAPDRGNLIVVPVSEGRRGNPVLWSRRFFRELMTLDGDVGARHLIAKHTEAVAEVPVDGEGAFLDIDTPQALEAARRGLEHHHHHH | not soluble |
| MKFGWVNVIGDNWEEKKKIVTTALESSIPVVVAEPEDIEKIKELGNIKVASHSLDADIVLVNKNDNIEFLKEAKNLGKETAIYIPIESKEDEEFASEVARFGFVDNIILEGRDWTIIPLENLIADLFHRDVKIVASVNSVDEAKVAYEILEKGTDGVLLNPKNLEDIKELSKLIEEMNKEKVALDVATVTKVEPIGSGDRVCIDTCSLMKIGEGMLIGSYSRALFLVHSETVENPYVATRPFRVNAGPVHAYILCPGNKTKYLSELKAGDKVLIVDKDGNTREAIVGRVKIERRPLVLIEAEYKGDIIRTILQNAETIRLVNEKGEPISVVDLKPGDKVLIKPEEYARHFGMAIKETIIEKLEHHHHHH | soluble |
| MKFKYLSTPLLFSALLFSACSSVNVGANLKSLIKETTDQDLDLSESVSTSEGKKNLISSLKKSYETNPSKTASVLLNAWKQSVENGQIESSETNWTNWKFP | soluble |
| MKFNCPLIVVNDINISRKFYEEVLCQKIKYDFGENVVYEGDFSLQLKSHFANMIDIDEKSIKFQSNGFELYFEEDNIEAFLNKLKQNKGINYIHSLLEHPWGQRVIRFYDPDMHIIEVGESMEGVIKRFFNEGMSIDEITKRTQHPLEFVKRVLHYKLTLEHHHHHH | soluble |
| MKFNKSTMEANGDTSACNGYSDKQRKDVRVWCDGCYDMVHFGHANSLRQAKALGDKVIVGIHTDEEITKHKGPPVFTEEERVKMVKGIKWVDEVVLGAPYVTTLDVLDQNNCDFCVHGDDITMTAEGVDTYHLVKSANRYKEVKRTAGVSTTD | not soluble |
| MKFTEGKVKVVANDVKNLTQALEGYIQKAFFEGKDICASGGLVLKTTNKLAQKLSELKEILPQVKVISDEVKAKAEEIIKKAEETLQKGLEIKKRVKEFEAATNVYKKNPSEENKKRVETALNNLKYPEGAKLTLEDYVKNCNPYKKYLQKRVEQKA | not soluble |
| MKFTIMSKGDQSSDTLASTMKEYLLDFGFIMDEKEPDIVISVGGDGTLLYAFHRYYNRLDETAFVGVHTGHLGFYADWLPTEVEKLVIAIAKTPFQVVEYPLLEVIIRYVNGSKESQYLAMNEATVKSAEGTLVTEVEIRGEYFETFRGDGLCISTPSGSTAYNKALGGAIIHPSIEAIQIAEMASINNRVFRTVGSPLVLPKHHTCVLKPAAGMNLQITVDHLTMVHQDVKSIQYRVANEKVRFVRFRPFPFWKRVRDSFVADKLEHHHHHH | not soluble |
| MKFVNFDEYKQLVDYFRNRLNPNYSSPTMLFIISITGMRASEAFGLVWDDIDFNNNTIKCRRTWNYRNKVGGFKKPKTDAGIRDIVIDDESMQLLKDFREQQKTLFESLGIKPIHDFVCYHPYRKIITLSALQNTLDHALKKLNISTPLTVHGLRHTHASVLLYHGVDIMTVSKRLGHASVAITQQTYIHIIKLEHHHHHH | not soluble |
| MKGDHYSPNWPQLALSKKQSVNWVCERCGVQCLKPGEGKGLLKEERYRFRMAVHHCDYDPSNNSPSNLMALCSLCHLYYHRRQQGNISLGQLSLEFYLEHHHHHH | soluble |
| MKGMRGPGESRDTAMAVEQDIFDAVVMADERFHGEGYQEGYEEGSSLGIVEGKRYGMVHGAKIGSEIGCYRGFALAWKCLLHSGAGEKDSRKMKVVEALIALLQDFPYDDPTYEKLHEDLDRIRGKFRQLCSLLNVQPDFKVTPGGSGLAF | soluble |
| MKGPNLTEISKKITDSNAVLLAVKEVEALLSSIDEIAAKAIGKKIHQNNGLDTENNHNGSLLAGAYAISTLIKQKLDGLKNEGLKEKIDAAKKCSETFTNKLKEKHTDLGKEGVTDADAKEAILKTNGTKTKGAEELGKLFESVEVLSKAAKEMLANSVKELTSPVVAESPKKP | soluble |
